We go through four molecules from patent EP4700040A1 (Shenzhen Loggene Life Science & Technology Co., Ltd., dated 2024).

Test [1] has as its target T1, Recombinant human IL6 protein with C-terminal six-histidine tag (human, UniProt P05231 29-212).
T1 construct: also called human interleukin 6
Put plainly: homogeneous split-luciferase sandwich with RB073-449-1, signal rises with IL6.

Test [2] addresses T1, Recombinant human IL6 protein with …. As to the kind of experiment: homogeneous split-luciferase sandwich with OL-453, signal rises with IL6.
In test [3] the target is Large subunit-rSCFV5 fusion protein. Put plainly: cell-based or functional assay.
The target is the same in test [4]. Put plainly: cell-based or functional assay. This is another data set of the same source.
For test [5] the target is unchanged. Put plainly: cell-based or functional assay. This is another data set of the same source.
Test [6] has the same target. Put plainly: cell-based or functional assay. This is another data set of the same source.
Test [7] shares this target. As to the kind of experiment: cell-based or functional assay. This is another data set of the same source.

Where two headings read alike, the source gives them in different places.

B1: fusion protein OL-453 of the large subunit with human IL6 SCFV antibody 453 (other)
chain: VFTLEDFVGDWEQTAAYNLDQVLEQGGVSSLLQNLAVSVTPIQRIVRSGENALKIDIHVIIPYEGLSADQMAQIEEVFKVVYPVDDHHFKVILPYGTLVIDGVTPNMLNYFGRPYEGIAVFDGKKITVTGTLWNGNKIIDERLITPDGSMLFRVTINSGSSGGGGSGGGGSGGQAVLTQPSSVSKSLGQSVSITCSGSNIGSSAVGWYQQLPGSGLKTIIYSTSSRPSGVPDRFSGSKSGNTATLTISSLQAEDEADYYCATGDRGNYGGVFGSGTRLTVLSSGGGGSGGGGGGSSRSSQVQLQESGPSLVKPSQTLSLTCTVSGFSLTSYGVGWVRQAPGKTPEWLGGIDRDGDMSYNPALKSRLSITRDTSKSQVSLSLRSVATEDTAVYYCARSSYDSHYYGDYYDVDVWGRGLLVTVSSGQAGHHHHHH
notes: also called large subunit fusion protein OL-453
With B1, the binding result in test [1] is “binds”.

B2: fusion protein RB073-449-1 of the small subunit peptide RB073 with human IL6 SCFV antibody 449-1 (other)
chain: VEGYRLFDRKSGGGGSGGGGSGGGGSQSALTQPSSVSKSLGQSVSITCSGSSSNVGYGNYVSWYQQVPGSAPKFLIYGATSRASGVPARFSGSRSGNTATLSISSLQAEDEADYYCASYDSSSYGVFGSGTTLTVLSSGGGGSGGGGGGSSRSSQVRLQESGPSLVKPSQTLSLTCTVSGFSLTNYPVGWVRQAPGKALEWLGGISSGGGTAYNPALKSRLSFTRDTSKNQVSLSLSSVTSEDTAVYYCTRGNGDYVLRYGADVWGRGLLVTVSSGSGHHHHHH
notes: also called small subunit fusion protein RB073-449-1
B2: the binding result in test [2] is listed as “binds”.

B3: rSCFV18-small subunit P114 fusion protein (other)
chain: AHHHHHHGSGDIVLTQTPSPVSAAVGGTVSINCQSSQSVYKNNRLSWYQQKPGQPPKFLIYDTSKLASGVPSRFSGSGSGTQFTLTISDLECDDAATYYCAGGYSNNIGAFGGGTEVVVKSSGGGGSGGGGGGSSRSSQSLEESRGRLVTPGGSLTLTCSVSGFSLSIYNMGWVRQAPGEGLEWIGVIGSSGNTYYASWAKGRFTISRNTNDNTVDLKITSPTTGDTATYFCARGFSSFDIWGPGTLVTVSSGGGGSGGGGSGGGGSVTGYRLFEEIL
B3: the “Signal-to-noise ratio at 1000 pg/ml” value is 3.8 in test [3], 3.8 in test [4] and 1.44 in test [6]. For the same molecule, the Signal-to-noise ratio came out at 12.2 in test [5] and 1.9 in test [7].

B4: rSCFV18-RB073 fusion protein (other)
chain: AHHHHHHGSGDIVLTQTPSPVSAAVGGTVSINCQSSQSVYKNNRLSWYQQKPGQPPKFLIYDTSKLASGVPSRFSGSGSGTQFTLTISDLECDDAATYYCAGGYSNNIGAFGGGTEVVVKSSGGGGSGGGGGGSSRSSQSLEESRGRLVTPGGSLTLTCSVSGFSLSIYNMGWVRQAPGEGLEWIGVIGSSGNTYYASWAKGRFTISRNTNDNTVDLKITSPTTGDTATYFCARGFSSFDIWGPGTLVTVSSGGGGSGGGGSGGGGSVEGYRLFDRKS
In the case of B4, the “Signal-to-noise ratio at 1000 pg/ml” value in test [3] turned out to be 14.5; in test [6], 38.9. For the same molecule, in test [5], the Signal-to-noise ratio was 48.
